Reference: patent US20210363262A1 (AIMED BIO, published 2021)
Positions count from the first letter of the chain named.

B1: 1F12 (parent antibody), full-length human IgG1 (antibody, V domains shown)
VH: EVQLLESGGGLVQPGGSLRLSCAASGFTFSNYAMSWVRQAPGKGLEWVSGISYSGGSTYYADSVKGRFTISRDNSKNTLYLQMNSLRAEDTAVYYCAKASRSCQRPACSYANGMDVWGQGTLVTVSS
VL: QSVLTQPPSASGTPGQRVTISCTGSSSNIGNNYVTWYQQLPGTAPKLLIYYNNHRPSGVPDRFSGSKSGTSASLAISGLQSEDEADYYCGSWDYSLSAYVFGGGTKLTVL
B2: 1F12_H58D, full-length human IgG1 (antibody, V domains shown)
VH: B1 VH with Y59D
VL: B1 VL
B3: 1F12_H53D, full-length human IgG1 (antibody, V domains shown)
VH: B1 VH with S54D
VL: B1 VL
B4: 1F12_L96D, full-length human IgG1 (antibody, V domains shown)
VH: B1 VH
VL: B1 VL with Y99D
B5: 1F12_L50E, full-length human IgG1 (antibody, V domains shown)
VH: B1 VH
VL: B1 VL with Y51E
B6: 1F12_L51D, full-length human IgG1 (antibody, V domains shown)
VH: B1 VH
VL: B1 VL with N52D
B7: 1F12_L26D, full-length human IgG1 (antibody, V domains shown)
VH: B1 VH
VL: B1 VL with S25D
B8: 1F12_L95aR, full-length human IgG1 (antibody, V domains shown)
VH: B1 VH
VL: B1 VL with S97R
B9: 1F12_L27bD, full-length human IgG1 (antibody, V domains shown)
VH: B1 VH
VL: B1 VL with N28D
B10: 1F12_H57K, full-length human IgG1 (antibody, V domains shown)
VH: B1 VH with T58K
VL: B1 VL
B11: 1F12_H60N, full-length human IgG1 (antibody, V domains shown)
VH: B1 VH with A61N
VL: B1 VL
B12: 1F12_H35H, full-length human IgG1 (antibody, V domains shown)
VH: B1 VH with S35H
VL: B1 VL
B13: 1F12_H100eH, full-length human IgG1 (antibody, V domains shown)
VH: B1 VH with S109H
VL: B1 VL
B14: 1F12_H2L6, full-length human IgG1 (antibody, V domains shown)
VH: B1 VH with S54D
VL: B1 VL with Y99D
B15: 1F12_H6L5, full-length human IgG1 (antibody, V domains shown)
VH: B1 VH with S109H
VL: B1 VL with S97R
B16: 1F12_H2L3, full-length human IgG1 (antibody, V domains shown)
VH: B1 VH with S54D
VL: B1 VL with Y51E
B17: 1F12_H3L5, full-length human IgG1 (antibody, V domains shown)
VH: B1 VH with T58K
VL: B1 VL with S97R

What follows are molecules tested against c-Met on cancer cell lines (Caki-1 renal cell carcinoma; MKN45 c-Met-amplified gastric cancer) (UniProt P08581) (assay: cell-based or functional assay).
Sequence of c-Met on cancer cell lines (Caki-1 renal cell carcinoma; MKN45 c-Met-amplified gastric cancer) (UniProt P08581) (P08581 25-1390): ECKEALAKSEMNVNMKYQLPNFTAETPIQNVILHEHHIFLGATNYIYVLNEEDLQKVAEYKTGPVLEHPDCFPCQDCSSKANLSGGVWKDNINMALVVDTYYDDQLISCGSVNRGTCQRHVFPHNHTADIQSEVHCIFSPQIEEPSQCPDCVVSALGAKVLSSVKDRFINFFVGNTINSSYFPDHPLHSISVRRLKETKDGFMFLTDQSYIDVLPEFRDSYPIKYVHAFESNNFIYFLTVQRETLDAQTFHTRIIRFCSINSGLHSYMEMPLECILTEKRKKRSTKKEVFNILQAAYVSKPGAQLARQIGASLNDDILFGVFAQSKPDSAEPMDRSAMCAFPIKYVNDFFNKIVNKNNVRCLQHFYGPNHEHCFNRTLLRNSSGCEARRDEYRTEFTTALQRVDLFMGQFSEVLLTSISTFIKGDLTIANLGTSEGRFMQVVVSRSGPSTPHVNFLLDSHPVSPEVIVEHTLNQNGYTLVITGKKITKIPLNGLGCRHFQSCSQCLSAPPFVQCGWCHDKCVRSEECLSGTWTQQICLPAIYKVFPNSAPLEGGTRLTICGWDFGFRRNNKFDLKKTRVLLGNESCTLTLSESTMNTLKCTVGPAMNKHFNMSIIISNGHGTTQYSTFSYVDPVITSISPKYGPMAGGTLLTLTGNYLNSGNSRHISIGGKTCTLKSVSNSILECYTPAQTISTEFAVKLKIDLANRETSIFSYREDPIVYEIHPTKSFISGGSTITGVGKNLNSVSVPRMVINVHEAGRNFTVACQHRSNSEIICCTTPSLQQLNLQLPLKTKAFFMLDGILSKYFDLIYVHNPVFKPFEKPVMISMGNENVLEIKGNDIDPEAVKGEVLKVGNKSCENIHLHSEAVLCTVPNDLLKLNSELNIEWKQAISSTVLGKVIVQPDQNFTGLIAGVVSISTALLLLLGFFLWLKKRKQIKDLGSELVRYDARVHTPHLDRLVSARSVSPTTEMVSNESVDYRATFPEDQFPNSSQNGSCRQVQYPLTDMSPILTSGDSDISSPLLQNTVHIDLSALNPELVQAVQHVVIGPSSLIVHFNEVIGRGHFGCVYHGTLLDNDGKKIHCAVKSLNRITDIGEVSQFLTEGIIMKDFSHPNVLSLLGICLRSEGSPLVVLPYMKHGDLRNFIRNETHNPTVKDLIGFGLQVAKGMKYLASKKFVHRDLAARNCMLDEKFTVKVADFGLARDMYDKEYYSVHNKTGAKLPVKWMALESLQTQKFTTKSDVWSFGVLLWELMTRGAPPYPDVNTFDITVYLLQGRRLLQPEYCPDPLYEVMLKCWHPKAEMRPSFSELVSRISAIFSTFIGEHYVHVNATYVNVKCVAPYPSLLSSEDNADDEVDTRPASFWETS

Row | Molecule | agonist activity: Akt phosphorylation in Caki-1 cells, Mean (%) (PBS = 0%, HGF/SF = 100%)
1 | 5D5, c-Met agonist antibody | 86%
2 | c-Met ligand HGF/SF (R&D systems) (from UniProt P14210 32-728) | 100%
3 | Onartuzumab (OA-5D5; monovalent c-Met antibody, Genentech) | 30.5%

Each molecule was assayed against c-Met on cancer cell lines (Caki-1 renal cell carcinoma; MKN45 c-Met-amplified gastric cancer) (UniProt P08581 25-1390) (assay: cell-based or functional assay).
Sequence of c-Met on cancer cell lines (Caki-1 renal cell carcinoma; MKN45 c-Met-amplified gastric cancer) (UniProt P08581 25-1390) (P08581 25-1390): as above

Row | Molecule | agonist activity: Akt phosphorylation in Caki-1 cells, Mean (%) (PBS = 0%, HGF/SF = 100%)
4 | B1 | 18.2%
5 | B2 | 21.5%
6 | B3 | 24.5%
7 | B4 | 21.2%
8 | B5 | 37.2%
9 | B6 | 42.5%
10 | B7 | 38.1%
11 | B8 | 29.5%
12 | B9 | 30.3%
13 | B10 | 26.8%
14 | B11 | 27.7%
15 | B12 | 17.3%
16 | B13 | 27.5%
17 | B14 | 26%
18 | B15 | 18.2%
19 | B16 | 24.5%
20 | B17 | 18.9%
